Laboratory results published in patent US20190185537A1 (AstraZeneca / MedImmune, published 2019).
Numbered stars: 1 amine (or outer) side, 2 acyl side, 3 side chain; on linkers, the order of the positions; unused ones are H or OH. Side chains are listed from the residue outwards. Ends that are not written are not given here. * marks the point of attachment. γGlu = O=C(O)[C@H](CCC(=O)[*:2])N[*:1]; Palmitoyl = CCCCCCCCCCCCCCCC(=O)*; Ahx = NCCCCCC(=O)O; βAla = NCCC(=O)O

T1: human glucose-dependent insulinotropic peptide (gastric inhibitory polypeptide) receptor (human) (UniProt P48546)
T1 sequence (looked up): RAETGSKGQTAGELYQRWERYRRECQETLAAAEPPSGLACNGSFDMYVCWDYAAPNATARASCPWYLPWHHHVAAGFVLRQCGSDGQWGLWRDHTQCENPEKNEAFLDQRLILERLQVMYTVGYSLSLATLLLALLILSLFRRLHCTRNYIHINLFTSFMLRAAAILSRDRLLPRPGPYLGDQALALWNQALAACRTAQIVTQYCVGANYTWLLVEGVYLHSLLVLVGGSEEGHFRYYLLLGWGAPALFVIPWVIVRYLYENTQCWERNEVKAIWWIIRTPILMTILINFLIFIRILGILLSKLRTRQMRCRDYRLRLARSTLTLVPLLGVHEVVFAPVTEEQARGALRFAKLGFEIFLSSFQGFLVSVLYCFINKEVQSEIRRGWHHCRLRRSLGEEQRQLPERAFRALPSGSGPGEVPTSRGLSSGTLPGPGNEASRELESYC

B1: g512 (peptide)
peptide: HGQGTFTSDYSKYLDSK([γGlu-Palmitoyl])RAQDFVQWLEAGG-NH2
modifications: N-terminus assumed
SMILES: CCCCCCCCCCCCCCCC(=O)N[C@@H](CCC(=O)NCCCC[C@H](NC(=O)[C@H](CO)NC(=O)[C@H](CC(=O)O)NC(=O)[C@H](CC(C)C)NC(=O)[C@H](Cc1ccc(O)cc1)NC(=O)[C@H](CCCCN)NC(=O)[C@H](CO)NC(=O)[C@H](Cc1ccc(O)cc1)NC(=O)[C@H](CC(=O)O)NC(=O)[C@H](CO)NC(=O)[C@@H](NC(=O)[C@H](Cc1ccccc1)NC(=O)[C@@H](NC(=O)CNC(=O)[C@H](CCC(N)=O)NC(=O)CNC(=O)[C@@H](N)Cc1c[nH]cn1)[C@@H](C)O)[C@@H](C)O)C(=O)N[C@@H](CCCNC(=N)N)C(=O)N[C@@H](C)C(=O)N[C@@H](CCC(N)=O)C(=O)N[C@@H](CC(=O)O)C(=O)N[C@@H](Cc1ccccc1)C(=O)N[C@H](C(=O)N[C@@H](CCC(N)=O)C(=O)N[C@@H](Cc1c[nH]c2ccccc12)C(=O)N[C@@H](CC(C)C)C(=O)N[C@@H](CCC(=O)O)C(=O)N[C@@H](C)C(=O)NCC(=O)NCC(N)=O)C(C)C)C(=O)O
B2: g513 (peptide)
peptide: HSEGTFTSDYSKYLDSK([γGlu-Palmitoyl])RAQDFVQWLEAGG-NH2
modifications: N-terminus assumed
SMILES: CCCCCCCCCCCCCCCC(=O)N[C@@H](CCC(=O)NCCCC[C@H](NC(=O)[C@H](CO)NC(=O)[C@H](CC(=O)O)NC(=O)[C@H](CC(C)C)NC(=O)[C@H](Cc1ccc(O)cc1)NC(=O)[C@H](CCCCN)NC(=O)[C@H](CO)NC(=O)[C@H](Cc1ccc(O)cc1)NC(=O)[C@H](CC(=O)O)NC(=O)[C@H](CO)NC(=O)[C@@H](NC(=O)[C@H](Cc1ccccc1)NC(=O)[C@@H](NC(=O)CNC(=O)[C@H](CCC(=O)O)NC(=O)[C@H](CO)NC(=O)[C@@H](N)Cc1c[nH]cn1)[C@@H](C)O)[C@@H](C)O)C(=O)N[C@@H](CCCNC(=N)N)C(=O)N[C@@H](C)C(=O)N[C@@H](CCC(N)=O)C(=O)N[C@@H](CC(=O)O)C(=O)N[C@@H](Cc1ccccc1)C(=O)N[C@H](C(=O)N[C@@H](CCC(N)=O)C(=O)N[C@@H](Cc1c[nH]c2ccccc12)C(=O)N[C@@H](CC(C)C)C(=O)N[C@@H](CCC(=O)O)C(=O)N[C@@H](C)C(=O)NCC(=O)NCC(N)=O)C(C)C)C(=O)O
B3: g782 (peptide)
peptide: HSQGTFTSDYSKYLDSRK([γGlu-Palmitoyl])ARDFVAWLEAGG-NH2
modifications: N-terminus assumed
SMILES: CCCCCCCCCCCCCCCC(=O)N[C@@H](CCC(=O)NCCCC[C@H](NC(=O)[C@H](CCCNC(=N)N)NC(=O)[C@H](CO)NC(=O)[C@H](CC(=O)O)NC(=O)[C@H](CC(C)C)NC(=O)[C@H](Cc1ccc(O)cc1)NC(=O)[C@H](CCCCN)NC(=O)[C@H](CO)NC(=O)[C@H](Cc1ccc(O)cc1)NC(=O)[C@H](CC(=O)O)NC(=O)[C@H](CO)NC(=O)[C@@H](NC(=O)[C@H](Cc1ccccc1)NC(=O)[C@@H](NC(=O)CNC(=O)[C@H](CCC(N)=O)NC(=O)[C@H](CO)NC(=O)[C@@H](N)Cc1c[nH]cn1)[C@@H](C)O)[C@@H](C)O)C(=O)N[C@@H](C)C(=O)N[C@@H](CCCNC(=N)N)C(=O)N[C@@H](CC(=O)O)C(=O)N[C@@H](Cc1ccccc1)C(=O)N[C@H](C(=O)N[C@@H](C)C(=O)N[C@@H](Cc1c[nH]c2ccccc12)C(=O)N[C@@H](CC(C)C)C(=O)N[C@@H](CCC(=O)O)C(=O)N[C@@H](C)C(=O)NCC(=O)NCC(N)=O)C(C)C)C(=O)O
B4: g747 (peptide)
peptide: HSQGTFTSDYSKYLDSRRAQDFVQWLEAGGK([γGlu-Palmitoyl])-NH2
modifications: N-terminus assumed
SMILES: CCCCCCCCCCCCCCCC(=O)N[C@@H](CCC(=O)NCCCC[C@H](NC(=O)CNC(=O)CNC(=O)[C@H](C)NC(=O)[C@H](CCC(=O)O)NC(=O)[C@H](CC(C)C)NC(=O)[C@H](Cc1c[nH]c2ccccc12)NC(=O)[C@H](CCC(N)=O)NC(=O)[C@@H](NC(=O)[C@H](Cc1ccccc1)NC(=O)[C@H](CC(=O)O)NC(=O)[C@H](CCC(N)=O)NC(=O)[C@H](C)NC(=O)[C@H](CCCNC(=N)N)NC(=O)[C@H](CCCNC(=N)N)NC(=O)[C@H](CO)NC(=O)[C@H](CC(=O)O)NC(=O)[C@H](CC(C)C)NC(=O)[C@H](Cc1ccc(O)cc1)NC(=O)[C@H](CCCCN)NC(=O)[C@H](CO)NC(=O)[C@H](Cc1ccc(O)cc1)NC(=O)[C@H](CC(=O)O)NC(=O)[C@H](CO)NC(=O)[C@@H](NC(=O)[C@H](Cc1ccccc1)NC(=O)[C@@H](NC(=O)CNC(=O)[C@H](CCC(N)=O)NC(=O)[C@H](CO)NC(=O)[C@@H](N)Cc1c[nH]cn1)[C@@H](C)O)[C@@H](C)O)C(C)C)C(N)=O)C(=O)O
B5: g837 (peptide)
peptide: HSQGTFTSDYSEYLDSK([γGlu-Palmitoyl])RARDFVAWLEAGG-NH2
modifications: N-terminus assumed
SMILES: CCCCCCCCCCCCCCCC(=O)N[C@@H](CCC(=O)NCCCC[C@H](NC(=O)[C@H](CO)NC(=O)[C@H](CC(=O)O)NC(=O)[C@H](CC(C)C)NC(=O)[C@H](Cc1ccc(O)cc1)NC(=O)[C@H](CCC(=O)O)NC(=O)[C@H](CO)NC(=O)[C@H](Cc1ccc(O)cc1)NC(=O)[C@H](CC(=O)O)NC(=O)[C@H](CO)NC(=O)[C@@H](NC(=O)[C@H](Cc1ccccc1)NC(=O)[C@@H](NC(=O)CNC(=O)[C@H](CCC(N)=O)NC(=O)[C@H](CO)NC(=O)[C@@H](N)Cc1c[nH]cn1)[C@@H](C)O)[C@@H](C)O)C(=O)N[C@@H](CCCNC(=N)N)C(=O)N[C@@H](C)C(=O)N[C@@H](CCCNC(=N)N)C(=O)N[C@@H](CC(=O)O)C(=O)N[C@@H](Cc1ccccc1)C(=O)N[C@H](C(=O)N[C@@H](C)C(=O)N[C@@H](Cc1c[nH]c2ccccc12)C(=O)N[C@@H](CC(C)C)C(=O)N[C@@H](CCC(=O)O)C(=O)N[C@@H](C)C(=O)NCC(=O)NCC(N)=O)C(C)C)C(=O)O
B6: g734 (peptide)
peptide: HSEGTFTSDYSEYLDSK([βAla-Palmitoyl])RARDFVAWLEAGG-NH2
modifications: N-terminus assumed
SMILES: CCCCCCCCCCCCCCCC(=O)NCCC(=O)NCCCC[C@H](NC(=O)[C@H](CO)NC(=O)[C@H](CC(=O)O)NC(=O)[C@H](CC(C)C)NC(=O)[C@H](Cc1ccc(O)cc1)NC(=O)[C@H](CCC(=O)O)NC(=O)[C@H](CO)NC(=O)[C@H](Cc1ccc(O)cc1)NC(=O)[C@H](CC(=O)O)NC(=O)[C@H](CO)NC(=O)[C@@H](NC(=O)[C@H](Cc1ccccc1)NC(=O)[C@@H](NC(=O)CNC(=O)[C@H](CCC(=O)O)NC(=O)[C@H](CO)NC(=O)[C@@H](N)Cc1c[nH]cn1)[C@@H](C)O)[C@@H](C)O)C(=O)N[C@@H](CCCNC(=N)N)C(=O)N[C@@H](C)C(=O)N[C@@H](CCCNC(=N)N)C(=O)N[C@@H](CC(=O)O)C(=O)N[C@@H](Cc1ccccc1)C(=O)N[C@H](C(=O)N[C@@H](C)C(=O)N[C@@H](Cc1c[nH]c2ccccc12)C(=O)N[C@@H](CC(C)C)C(=O)N[C@@H](CCC(=O)O)C(=O)N[C@@H](C)C(=O)NCC(=O)NCC(N)=O)C(C)C
B7: g838 (peptide)
peptide: HSQGTFTSDYSEYLDSK([Ahx-Palmitoyl])RARDFVAWLEAGG-NH2
modifications: N-terminus assumed
SMILES: CCCCCCCCCCCCCCCC(=O)NCCCCCC(=O)NCCCC[C@H](NC(=O)[C@H](CO)NC(=O)[C@H](CC(=O)O)NC(=O)[C@H](CC(C)C)NC(=O)[C@H](Cc1ccc(O)cc1)NC(=O)[C@H](CCC(=O)O)NC(=O)[C@H](CO)NC(=O)[C@H](Cc1ccc(O)cc1)NC(=O)[C@H](CC(=O)O)NC(=O)[C@H](CO)NC(=O)[C@@H](NC(=O)[C@H](Cc1ccccc1)NC(=O)[C@@H](NC(=O)CNC(=O)[C@H](CCC(N)=O)NC(=O)[C@H](CO)NC(=O)[C@@H](N)Cc1c[nH]cn1)[C@@H](C)O)[C@@H](C)O)C(=O)N[C@@H](CCCNC(=N)N)C(=O)N[C@@H](C)C(=O)N[C@@H](CCCNC(=N)N)C(=O)N[C@@H](CC(=O)O)C(=O)N[C@@H](Cc1ccccc1)C(=O)N[C@H](C(=O)N[C@@H](C)C(=O)N[C@@H](Cc1c[nH]c2ccccc12)C(=O)N[C@@H](CC(C)C)C(=O)N[C@@H](CCC(=O)O)C(=O)N[C@@H](C)C(=O)NCC(=O)NCC(N)=O)C(C)C

Molecular target: human glucagon receptor (human, UniProt P47871 26-477)
Sequence (P47871 26-477): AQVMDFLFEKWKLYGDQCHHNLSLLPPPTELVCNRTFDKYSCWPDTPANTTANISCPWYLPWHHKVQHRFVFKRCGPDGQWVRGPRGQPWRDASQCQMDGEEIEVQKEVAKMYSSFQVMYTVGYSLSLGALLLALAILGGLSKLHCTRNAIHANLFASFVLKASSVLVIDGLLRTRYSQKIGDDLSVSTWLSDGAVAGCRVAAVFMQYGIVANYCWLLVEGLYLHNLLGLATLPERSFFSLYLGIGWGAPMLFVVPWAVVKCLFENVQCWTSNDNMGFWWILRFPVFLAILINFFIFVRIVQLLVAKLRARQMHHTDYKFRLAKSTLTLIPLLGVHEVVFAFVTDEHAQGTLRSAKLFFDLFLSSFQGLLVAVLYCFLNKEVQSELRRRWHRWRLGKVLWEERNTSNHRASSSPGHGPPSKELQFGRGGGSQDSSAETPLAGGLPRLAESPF
Assay: cell-based or functional assay

Row | Binder | cAMP EC50 (assay 1) [nM]
1 | B1 | 0.0606
2 | B2 | 0.723
3 | B3 | 0.156
4 | B4 | 0.0942
5 | B5 | 0.213
6 | B6 | 82.8
7 | B7 | 0.00568

Molecular target: T1, human glucose-dependent insulinotropic peptide (gastric inhibitory polypeptide) receptor (human)
Assay: cell-based or functional assay

Row | Binder | cAMP EC50 (assay 1) [nM]
8 | B1 | 407
9 | B2 | 298
10 | B3 | 1430
11 | B4 | 1040
12 | B5 | 114
13 | B6 | 1170
14 | B7 | 84.3

Molecular target: human GLP-1 receptor (human, UniProt P43220 24-463)
Sequence (P43220 24-463): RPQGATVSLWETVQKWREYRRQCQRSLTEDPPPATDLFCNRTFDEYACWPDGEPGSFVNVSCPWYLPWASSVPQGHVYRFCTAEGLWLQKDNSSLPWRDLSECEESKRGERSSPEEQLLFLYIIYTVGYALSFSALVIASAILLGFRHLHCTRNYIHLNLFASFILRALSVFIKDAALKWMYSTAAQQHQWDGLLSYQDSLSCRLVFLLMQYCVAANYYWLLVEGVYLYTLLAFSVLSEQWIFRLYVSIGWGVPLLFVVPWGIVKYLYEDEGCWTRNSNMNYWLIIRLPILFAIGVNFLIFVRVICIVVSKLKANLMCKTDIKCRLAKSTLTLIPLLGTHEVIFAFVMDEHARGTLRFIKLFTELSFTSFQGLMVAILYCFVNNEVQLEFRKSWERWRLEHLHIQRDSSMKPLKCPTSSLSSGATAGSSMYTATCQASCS
Assay: cell-based or functional assay

Row | Binder | cAMP EC50 (assay 1) [nM]
15 | B1 | 0.098
16 | B2 | 0.175
17 | B3 | 0.0254
18 | B4 | 3.16
19 | B5 | 0.467
20 | B6 | 0.0695
21 | B7 | 0.0237
